Source: patent US20190270798A1 (CHILDREN S MEDICAL CENTER, published 2019)

Key:
[1] = molecular target: T1, mouse LRRC33 (mouse, UniProt Q8BMT4 20-693, limits assumed); experiment: immunoprecipitation from 293T transfectant lysates, blot
T1 construct: also called mouse LRRC33 complexes
T1 sequence (looked up): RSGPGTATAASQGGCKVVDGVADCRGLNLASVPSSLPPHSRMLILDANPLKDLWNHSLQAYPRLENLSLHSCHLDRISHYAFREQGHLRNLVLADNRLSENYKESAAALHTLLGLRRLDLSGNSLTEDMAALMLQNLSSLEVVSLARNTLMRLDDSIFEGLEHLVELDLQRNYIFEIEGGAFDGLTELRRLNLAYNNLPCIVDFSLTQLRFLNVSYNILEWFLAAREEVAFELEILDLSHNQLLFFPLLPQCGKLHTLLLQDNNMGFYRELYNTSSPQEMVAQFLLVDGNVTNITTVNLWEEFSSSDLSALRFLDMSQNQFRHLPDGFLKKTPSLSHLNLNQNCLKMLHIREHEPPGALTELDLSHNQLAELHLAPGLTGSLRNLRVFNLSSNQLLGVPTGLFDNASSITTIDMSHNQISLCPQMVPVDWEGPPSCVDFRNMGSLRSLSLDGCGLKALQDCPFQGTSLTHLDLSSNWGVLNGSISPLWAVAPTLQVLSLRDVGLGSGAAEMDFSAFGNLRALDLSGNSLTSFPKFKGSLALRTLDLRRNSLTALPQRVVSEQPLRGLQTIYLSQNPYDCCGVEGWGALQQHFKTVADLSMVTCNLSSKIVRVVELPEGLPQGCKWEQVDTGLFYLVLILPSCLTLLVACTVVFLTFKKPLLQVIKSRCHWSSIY

[2] = molecular target: T2, human Glycoprotein A Repetitions Predominant (GARP) (human, UniProt Q14392 20-662); experiment: immunoprecipitation from L1.2 transfectant lysates, blot
T2 construct: whole, on cells; tested in cell lysates; also called LRRC32; FLAG-tagged GARP
T2 sequence (looked up): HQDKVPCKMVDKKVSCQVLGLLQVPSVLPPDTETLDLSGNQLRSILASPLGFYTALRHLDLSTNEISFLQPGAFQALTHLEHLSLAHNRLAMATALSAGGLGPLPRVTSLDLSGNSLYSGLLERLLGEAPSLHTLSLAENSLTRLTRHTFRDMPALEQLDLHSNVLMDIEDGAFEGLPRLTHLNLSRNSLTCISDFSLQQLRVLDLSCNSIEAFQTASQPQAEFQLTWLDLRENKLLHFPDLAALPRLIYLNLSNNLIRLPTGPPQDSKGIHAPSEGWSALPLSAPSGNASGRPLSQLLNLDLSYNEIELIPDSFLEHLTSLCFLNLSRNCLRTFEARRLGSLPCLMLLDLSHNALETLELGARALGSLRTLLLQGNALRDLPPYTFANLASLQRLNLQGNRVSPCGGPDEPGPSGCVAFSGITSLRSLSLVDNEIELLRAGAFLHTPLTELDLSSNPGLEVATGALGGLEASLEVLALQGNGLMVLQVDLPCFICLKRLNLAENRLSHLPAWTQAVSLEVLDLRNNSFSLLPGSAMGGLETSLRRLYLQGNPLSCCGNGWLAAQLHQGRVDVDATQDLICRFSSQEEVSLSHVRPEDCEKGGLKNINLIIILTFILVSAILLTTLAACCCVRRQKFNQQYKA
Description: Cell surface expression of FLAG-LRRC33, FLAG-33-32-X1, and FLAG-33-32-X5 were measured using FACS. Numbers show the MFI (mean fluorescence intensity). (B, C) The specificity of anti-LRRC33 antibody.
Anti-LRRC33 mAb was generated by immunizing Lac33^{-/-} mice with L1.2 cells that stably express the 33-32-X1 chimera on the cell surface. Hybridoma supernatants were screened by immunofluorescence flow cytometry (FACS) and an LRRC33 positive hybridoma was identified. This anti-LRRC33 mAb only recognizes human LRRC33, not GARP, in L1.2 transfectants by immunoprecipitates (IP) (FIG. 8B, line 2, 3).
After 48 hours of transfection, cells were collected and lysed in IP lysis buffer (50 mM Tris pH7.4, 150 mM NaCl, 2 mM EDTA, 1% NP-40), which was supplemented with a protease inhibitor cocktail (Roche) and subjected to western blot analysis or were used for immunoprecipitation with the indicated antibody. Performed as described previously {Wang et al, 2012}. L1.2 cells were transfected with indicated plasmid using electroporation. […]

B1: anti-LRRC33 monoclonal antibody (mAb) (antibody, V domains shown)
VH: EFQLQQSGPELVKPGASVKMSCKASGYSFTDSYMDWVKQSNGKTLEWIGLINPKYGTTTYNQKFKGKATLTVDQSSSTAYMQLNSLTSEDSAVYFCASLYYDYSAWFAYWGQGTLVTVSA
VL: QAVVTQESALTTSPGETVTLTCRSSTGAVTTSNYANWVQEKPDHLFTGLIGGTNNRAPGVPARFSGSLIGDKAALIITGAQTEDEAIYFCGLWFSNRWVFGGGTKLTVV
notes: Mouse hybridoma mAb raised in Lrrc33-/- mice against L1.2 cells expressing the 33-32-X1 chimera; also called anti-LRRC33 mAb; anti-LRRC33 antibody
[1]
  binding result: no binding
[2]
  binding result: no binding
